Here are results for one molecule from PMC6299665 (Journal for Immunotherapy of Cancer, 2018).

In general, Kd refers to the concentration at which binding is half-saturated. The koff is the first-order rate constant of dissociation.

The target of assay [1] is T1, human OX40, histidine-tagged recombinant (human, UniProt P43489 29-214).
T1 construct: OX40, human, recombinant; also called hOX40-His; source: bought: Acro Biosystems (SPR); for the ELISAs the vendor is one of Jackson ImmunoResearch, Sino Biological, Acro Biosystems, R&D Systems
T1 sequence (looked up): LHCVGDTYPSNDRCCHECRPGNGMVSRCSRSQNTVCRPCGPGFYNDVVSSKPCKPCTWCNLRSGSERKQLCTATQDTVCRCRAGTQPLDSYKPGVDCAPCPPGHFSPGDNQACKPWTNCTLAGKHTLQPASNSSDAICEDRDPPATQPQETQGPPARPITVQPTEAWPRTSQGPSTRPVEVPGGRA
Kind of assay: SPR; BioRAD ProteOn XPR36; His-tagged targets immobilised on Ni-activated HTG chip; analyte in PBS/Tween (0.005%) pH 7.0, 3 min injection, 5 min dissociation, flow 80-100 μl/min. As to conditions: both partners purified. A general note: SPR reads the build-up and loss of mass on a sensor chip optically.

Assay [2] concerns the target T2, human OX40, histidine-tagged recombinant (human, UniProt P43489 29-214).
T2 chain: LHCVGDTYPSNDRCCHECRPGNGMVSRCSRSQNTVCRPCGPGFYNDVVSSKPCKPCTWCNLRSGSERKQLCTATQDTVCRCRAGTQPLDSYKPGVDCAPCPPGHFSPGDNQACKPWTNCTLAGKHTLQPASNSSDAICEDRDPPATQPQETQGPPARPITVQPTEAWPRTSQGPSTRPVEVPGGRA
Kind of assay: SPR.

B1: recombinant human OX40L-Fc (Fc fusion, UniProt P23510 51-183, looked up)
chain: QVSHRYPRIQSIKVQFTEYKKEKGFILTSQKEDEIMKVQNNSVIINCDGFYLISLKGYFSQEVNISLHYQKDEEPLFQLKKVRSVNSLMVASLTYKDKVYLNVTTDNTSLDDFHVNGGELILIHQNPGEFCVL
notes: OX40L, human, recombinant Fc fusion; The background says in general that in OX40L-Fc proteins the Fc precedes OX40L; also called hOX40L-Fc; Fc-OX40L; source: bought: Acro Biosystems
B1: in assay [1], the Kd was found to be 9.28 nM. Moreover, the koff in assay [2] is 0.00069 s⁻¹.
